Measurements as given in patent publication US20260055193A1 (CELLDEX THERAPEUTICS, published 2026).

Key:
[1] = biological target: human KIT (wild-type KIT) (human, UniProt P10721 26-976); assay: cell-based or functional assay
[2] = biological target: T1, recombinant human FcγRIIb (human, UniProt P31994 46-217, limits assumed); assay: Bio-layer interferometry (Octet QKe); His-tagged FcγRIIb on anti-Penta-His biosensors, serial dilutions of antibody
T1 construct: Histidine-tagged recombinant receptor captured on anti-Penta-His biosensors; not shown: histidine tag
T1 sequence (looked up): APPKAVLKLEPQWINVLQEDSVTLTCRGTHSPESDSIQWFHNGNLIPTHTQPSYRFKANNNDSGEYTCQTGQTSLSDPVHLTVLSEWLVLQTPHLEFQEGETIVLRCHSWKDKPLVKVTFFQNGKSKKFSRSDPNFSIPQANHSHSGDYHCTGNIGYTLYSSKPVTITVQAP

human KIT (wild-type KIT), sequence (P10721 other isoform, or with tags, fused parts or gaps limits assumed): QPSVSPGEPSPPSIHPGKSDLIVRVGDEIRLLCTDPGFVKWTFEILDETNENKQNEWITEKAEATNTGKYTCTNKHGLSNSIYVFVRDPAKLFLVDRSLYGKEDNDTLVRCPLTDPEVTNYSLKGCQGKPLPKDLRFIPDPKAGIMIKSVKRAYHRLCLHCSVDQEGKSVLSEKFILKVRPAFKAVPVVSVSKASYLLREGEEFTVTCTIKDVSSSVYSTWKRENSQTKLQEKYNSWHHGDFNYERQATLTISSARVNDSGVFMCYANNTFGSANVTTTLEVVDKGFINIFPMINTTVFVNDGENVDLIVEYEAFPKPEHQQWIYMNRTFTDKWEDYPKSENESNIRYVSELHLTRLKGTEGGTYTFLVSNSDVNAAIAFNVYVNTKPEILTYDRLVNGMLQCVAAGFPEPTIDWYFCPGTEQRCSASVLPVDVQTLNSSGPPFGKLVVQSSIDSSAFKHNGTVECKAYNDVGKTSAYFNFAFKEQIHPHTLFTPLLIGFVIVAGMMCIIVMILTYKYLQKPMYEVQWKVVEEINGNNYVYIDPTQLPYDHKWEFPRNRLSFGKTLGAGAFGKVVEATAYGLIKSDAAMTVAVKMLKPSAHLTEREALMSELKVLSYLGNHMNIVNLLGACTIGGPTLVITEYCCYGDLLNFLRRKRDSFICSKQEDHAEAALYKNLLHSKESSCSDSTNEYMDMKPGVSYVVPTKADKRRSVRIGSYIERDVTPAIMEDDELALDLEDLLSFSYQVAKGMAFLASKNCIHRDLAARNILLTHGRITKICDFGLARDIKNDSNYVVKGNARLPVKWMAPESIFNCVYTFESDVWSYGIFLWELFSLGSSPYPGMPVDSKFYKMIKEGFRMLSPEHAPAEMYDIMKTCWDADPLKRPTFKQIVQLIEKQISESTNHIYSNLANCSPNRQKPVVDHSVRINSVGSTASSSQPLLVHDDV

B1: mAb1 (antibody, human IgG1, kappa)
heavy: QVQLVQSGAEVKKPGASVKLSCKASGYTFTDYYINWVRQAPGKGLEWIARIYPGSGNTYYNEKFKGRATLTADKSTSTAYMQLSSLRSEDTAVYFCARGVYYFDYWGQGTTVTVSSASTKGPSVFPLAPSSKSTSGGTAALGCLVKDYFPEPVTVSWNSGALTSGVHTFPAVLQSSGLYSLSSVVTVPSSSLGTQTYICNVNHKPSNTKVDKKVEPKSCDKTHTCPPCPAPEAQGGPSVFLFPPKPKDTLYITREPEVTCVVVDVSHEDPEVKFNWYVDGVEVHNAKTKPREEQYNSTYRVVSVLTVLHQDWLNGKEYKCQVSNKALPAPIEKTISKAKGQPREPQVYTLPPSRDELTKNQVSLTCLVKGFYPSDIAVEWESNGQPENNYKTTPPVLDSDGSFFLYSKLTVDKSRWQQGNVFSCSVMHEALHNHYTQKSLSLSPG
light: DIVMTQSPSSLSASVGDRVTITCKASQNVRTNVAWYQQKPGKAPKALIYSASYRYSGVPDRFTGSGSGTDFTLTISSLQPEDFADYFCQQYNSYPRTFGGGTKVEIKRTVAAPSVFIFPPSDEQLKSGTASVVCLLNNFYPREAKVQWKVDNALQSGNSQESVTEQDSKDSTYSLSSTLTLSKADYEKHKVYACEVTHQGLSSPVTKSFNRGEC
IC50 of inhibition of SCF-dependent M-07e cell proliferation [1]: 1.11 nM

B2: mAbc (antibody)
heavy: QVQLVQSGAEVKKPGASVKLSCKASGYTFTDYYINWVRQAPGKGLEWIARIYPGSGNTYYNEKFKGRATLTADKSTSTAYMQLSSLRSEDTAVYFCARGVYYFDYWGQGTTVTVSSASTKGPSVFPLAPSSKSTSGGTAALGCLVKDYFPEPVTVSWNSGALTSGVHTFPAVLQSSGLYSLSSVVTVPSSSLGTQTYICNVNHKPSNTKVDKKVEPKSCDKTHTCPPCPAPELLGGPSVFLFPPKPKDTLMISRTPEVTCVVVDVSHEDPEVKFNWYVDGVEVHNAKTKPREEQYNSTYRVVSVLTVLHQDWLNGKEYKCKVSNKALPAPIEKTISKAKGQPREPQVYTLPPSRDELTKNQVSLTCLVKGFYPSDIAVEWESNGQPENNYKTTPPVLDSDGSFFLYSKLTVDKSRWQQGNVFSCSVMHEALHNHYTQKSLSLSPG
light: B1 light
notes: It only says that mAbc has the variable regions of mAb1 and a wild-type (unmutated) human IgG1 Fc; also called corresponding antibody with a wild-type (unmutated) IgG1 Fc domain; copies: 2 + 2
IC50 of inhibition of SCF-dependent M-07e cell proliferation [1]: 1.12 nM
binding result [2]: no binding (tested: 500 nM)
